Test results as given in the supplement of paper PMC10065799, “High-throughput profiling of sequence recognition by tyrosine kinases and SH2 domains using bacterial peptide display” (eLife, 2023).

Tests used:
[1] = system: AncSZ; assay: phosphorylation enrichment, bacterial display (enrichment ratio); higher = better substrate or ligand; peptides without Tyr show the background
[2] = molecular target: EPHB1 (UniProt P54762); assay: as above
[3] = molecular target: EPHB2 (UniProt P29323); assay: as above
[4] = molecular target: FGFR1 (UniProt P11362); assay: as above
[5] = molecular target: FGFR3 (UniProt P22607); assay: as above
FGFR3, sequence (P22607 whole entry, looked up): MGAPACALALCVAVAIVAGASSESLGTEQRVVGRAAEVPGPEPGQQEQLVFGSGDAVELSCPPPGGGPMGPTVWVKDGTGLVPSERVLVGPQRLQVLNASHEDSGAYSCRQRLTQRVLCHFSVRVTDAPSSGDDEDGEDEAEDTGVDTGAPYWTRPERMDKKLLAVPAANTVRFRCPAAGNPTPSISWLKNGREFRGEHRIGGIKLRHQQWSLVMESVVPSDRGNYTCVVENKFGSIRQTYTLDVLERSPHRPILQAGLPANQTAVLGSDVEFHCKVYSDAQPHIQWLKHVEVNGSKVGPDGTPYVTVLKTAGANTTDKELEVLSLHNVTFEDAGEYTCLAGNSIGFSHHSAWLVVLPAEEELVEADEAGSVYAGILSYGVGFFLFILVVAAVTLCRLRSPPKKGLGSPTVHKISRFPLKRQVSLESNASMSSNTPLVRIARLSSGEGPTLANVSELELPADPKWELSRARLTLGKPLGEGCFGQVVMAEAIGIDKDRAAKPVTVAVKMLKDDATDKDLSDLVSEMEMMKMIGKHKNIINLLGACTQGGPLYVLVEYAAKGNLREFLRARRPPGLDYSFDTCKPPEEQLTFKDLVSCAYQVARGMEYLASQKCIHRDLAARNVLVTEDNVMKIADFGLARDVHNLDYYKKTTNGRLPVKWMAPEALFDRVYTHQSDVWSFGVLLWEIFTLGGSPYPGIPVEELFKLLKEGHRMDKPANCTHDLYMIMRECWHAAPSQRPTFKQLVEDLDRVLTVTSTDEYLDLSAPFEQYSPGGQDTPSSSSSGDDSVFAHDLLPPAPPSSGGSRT

[6] = system: Fer (mouse); assay: as above
[7] = molecular target: Fes (UniProt P07332); assay: as above
Fes, sequence (P07332 whole entry, looked up): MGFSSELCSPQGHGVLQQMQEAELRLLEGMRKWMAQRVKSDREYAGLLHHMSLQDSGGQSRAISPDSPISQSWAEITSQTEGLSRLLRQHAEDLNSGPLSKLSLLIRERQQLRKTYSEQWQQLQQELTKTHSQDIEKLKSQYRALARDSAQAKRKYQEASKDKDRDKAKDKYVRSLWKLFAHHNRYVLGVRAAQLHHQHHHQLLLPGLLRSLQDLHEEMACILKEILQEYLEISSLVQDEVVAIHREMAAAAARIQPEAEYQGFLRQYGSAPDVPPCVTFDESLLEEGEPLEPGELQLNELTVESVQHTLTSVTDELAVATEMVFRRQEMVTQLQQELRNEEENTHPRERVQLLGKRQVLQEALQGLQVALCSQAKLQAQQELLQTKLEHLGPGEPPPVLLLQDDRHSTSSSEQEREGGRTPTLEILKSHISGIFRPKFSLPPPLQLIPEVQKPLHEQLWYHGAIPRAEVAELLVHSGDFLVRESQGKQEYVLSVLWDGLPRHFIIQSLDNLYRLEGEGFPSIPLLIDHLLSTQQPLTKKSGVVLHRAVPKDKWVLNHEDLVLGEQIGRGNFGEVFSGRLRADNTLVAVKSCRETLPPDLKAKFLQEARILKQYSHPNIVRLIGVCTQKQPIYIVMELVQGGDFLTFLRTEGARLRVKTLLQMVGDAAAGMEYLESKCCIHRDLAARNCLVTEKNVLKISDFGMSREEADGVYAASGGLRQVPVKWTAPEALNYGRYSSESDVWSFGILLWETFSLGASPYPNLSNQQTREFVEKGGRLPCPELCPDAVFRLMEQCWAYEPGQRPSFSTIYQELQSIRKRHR

[8] = molecular target: Fyn (UniProt P06241); assay: as above
[9] = molecular target: Hck (UniProt P08631); assay: as above
[10] = molecular target: Jak2 (UniProt O60674); assay: as above
Jak2, sequence (O60674 whole entry, looked up): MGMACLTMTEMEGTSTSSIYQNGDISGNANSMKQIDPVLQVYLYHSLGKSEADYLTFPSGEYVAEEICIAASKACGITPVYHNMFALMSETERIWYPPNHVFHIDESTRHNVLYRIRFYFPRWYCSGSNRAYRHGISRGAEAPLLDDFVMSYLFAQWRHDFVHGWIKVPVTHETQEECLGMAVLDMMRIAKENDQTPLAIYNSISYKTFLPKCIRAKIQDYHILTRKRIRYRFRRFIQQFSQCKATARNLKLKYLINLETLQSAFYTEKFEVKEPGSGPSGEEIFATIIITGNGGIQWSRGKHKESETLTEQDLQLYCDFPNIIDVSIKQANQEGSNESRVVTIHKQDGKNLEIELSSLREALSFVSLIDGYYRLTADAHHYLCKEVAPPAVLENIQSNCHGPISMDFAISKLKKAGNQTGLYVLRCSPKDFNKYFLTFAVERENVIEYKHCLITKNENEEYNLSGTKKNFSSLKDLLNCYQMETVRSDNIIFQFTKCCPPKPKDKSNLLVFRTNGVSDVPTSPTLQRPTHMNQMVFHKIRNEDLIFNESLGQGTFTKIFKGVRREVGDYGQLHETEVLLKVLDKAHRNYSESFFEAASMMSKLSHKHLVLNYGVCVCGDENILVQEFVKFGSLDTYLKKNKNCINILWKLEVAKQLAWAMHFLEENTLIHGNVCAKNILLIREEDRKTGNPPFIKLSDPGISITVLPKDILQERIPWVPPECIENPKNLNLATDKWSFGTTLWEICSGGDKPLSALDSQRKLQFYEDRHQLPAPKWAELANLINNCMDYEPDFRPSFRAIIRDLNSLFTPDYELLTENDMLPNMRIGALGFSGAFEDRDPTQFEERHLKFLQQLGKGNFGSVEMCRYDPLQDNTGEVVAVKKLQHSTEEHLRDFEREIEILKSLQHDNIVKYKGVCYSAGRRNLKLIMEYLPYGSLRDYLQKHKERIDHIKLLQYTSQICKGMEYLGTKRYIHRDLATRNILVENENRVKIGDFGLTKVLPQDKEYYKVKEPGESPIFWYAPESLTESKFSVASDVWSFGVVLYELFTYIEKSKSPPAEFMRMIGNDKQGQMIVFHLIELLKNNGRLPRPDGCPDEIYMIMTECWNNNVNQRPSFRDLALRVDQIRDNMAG

[11] = molecular target: MERTK (UniProt Q12866); assay: as above
MERTK, sequence (Q12866 whole entry, looked up): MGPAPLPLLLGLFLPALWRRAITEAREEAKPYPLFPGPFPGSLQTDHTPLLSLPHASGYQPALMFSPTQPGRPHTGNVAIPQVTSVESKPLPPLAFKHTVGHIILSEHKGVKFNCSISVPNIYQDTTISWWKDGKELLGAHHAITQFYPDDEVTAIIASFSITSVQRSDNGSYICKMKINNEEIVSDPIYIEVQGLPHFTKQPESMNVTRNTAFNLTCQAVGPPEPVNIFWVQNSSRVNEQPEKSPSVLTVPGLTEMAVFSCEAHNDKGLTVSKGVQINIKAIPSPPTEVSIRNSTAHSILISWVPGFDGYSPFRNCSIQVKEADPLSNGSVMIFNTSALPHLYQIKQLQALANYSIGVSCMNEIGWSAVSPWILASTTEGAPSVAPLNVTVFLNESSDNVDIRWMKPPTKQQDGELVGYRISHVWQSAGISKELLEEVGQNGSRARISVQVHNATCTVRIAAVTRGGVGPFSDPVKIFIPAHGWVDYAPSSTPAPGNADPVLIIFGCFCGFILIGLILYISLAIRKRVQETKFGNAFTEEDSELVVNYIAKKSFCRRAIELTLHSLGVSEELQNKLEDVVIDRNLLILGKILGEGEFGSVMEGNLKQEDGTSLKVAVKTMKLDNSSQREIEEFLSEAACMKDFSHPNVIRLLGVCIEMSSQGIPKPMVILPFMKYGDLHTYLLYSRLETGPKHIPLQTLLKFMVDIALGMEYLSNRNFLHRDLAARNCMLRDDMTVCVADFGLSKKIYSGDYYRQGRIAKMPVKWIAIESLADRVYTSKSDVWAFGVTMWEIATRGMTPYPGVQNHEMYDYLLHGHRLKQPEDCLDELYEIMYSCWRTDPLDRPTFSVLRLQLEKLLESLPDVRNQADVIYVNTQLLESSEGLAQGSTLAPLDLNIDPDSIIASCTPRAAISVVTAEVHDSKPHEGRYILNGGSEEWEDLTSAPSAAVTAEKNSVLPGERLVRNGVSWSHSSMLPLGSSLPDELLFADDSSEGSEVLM

[12] = system: c-Abl (mouse); assay: as above
[13] = system: c-Src; assay: as above
[14] = molecular target: Grb2 SH2 (UniProt P62993); assay: SH2 binding enrichment of the phosphorylated peptide, bacterial display (enrichment ratio); higher = better substrate or ligand; peptides without Tyr show the background
[15] = molecular target: SHP2-C SH2; assay: as above
[16] = molecular target: c-Src SH2; assay: as above
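Throughout, for SH2 binding enrichment of the phosphorylated peptide, bacterial display: peptide library displayed on the E. coli surface as eCPX fusions, selected cells deep-sequenced, score is each peptide's frequency after selection divided by its frequency in the input.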
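Throughout, for phosphorylation enrichment, bacterial display: 11-residue human phosphosite peptides and single-mutation variants displayed on the E. coli surface, counted by deep sequencing, each peptide's frequency after selection divided by its frequency in the unselected input library; frequency after pTyr selection over input frequency; kinase dosed for 20-30% of maximal phosphorylation in three min.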

EPHB1, sequence (P54762 whole entry, looked up): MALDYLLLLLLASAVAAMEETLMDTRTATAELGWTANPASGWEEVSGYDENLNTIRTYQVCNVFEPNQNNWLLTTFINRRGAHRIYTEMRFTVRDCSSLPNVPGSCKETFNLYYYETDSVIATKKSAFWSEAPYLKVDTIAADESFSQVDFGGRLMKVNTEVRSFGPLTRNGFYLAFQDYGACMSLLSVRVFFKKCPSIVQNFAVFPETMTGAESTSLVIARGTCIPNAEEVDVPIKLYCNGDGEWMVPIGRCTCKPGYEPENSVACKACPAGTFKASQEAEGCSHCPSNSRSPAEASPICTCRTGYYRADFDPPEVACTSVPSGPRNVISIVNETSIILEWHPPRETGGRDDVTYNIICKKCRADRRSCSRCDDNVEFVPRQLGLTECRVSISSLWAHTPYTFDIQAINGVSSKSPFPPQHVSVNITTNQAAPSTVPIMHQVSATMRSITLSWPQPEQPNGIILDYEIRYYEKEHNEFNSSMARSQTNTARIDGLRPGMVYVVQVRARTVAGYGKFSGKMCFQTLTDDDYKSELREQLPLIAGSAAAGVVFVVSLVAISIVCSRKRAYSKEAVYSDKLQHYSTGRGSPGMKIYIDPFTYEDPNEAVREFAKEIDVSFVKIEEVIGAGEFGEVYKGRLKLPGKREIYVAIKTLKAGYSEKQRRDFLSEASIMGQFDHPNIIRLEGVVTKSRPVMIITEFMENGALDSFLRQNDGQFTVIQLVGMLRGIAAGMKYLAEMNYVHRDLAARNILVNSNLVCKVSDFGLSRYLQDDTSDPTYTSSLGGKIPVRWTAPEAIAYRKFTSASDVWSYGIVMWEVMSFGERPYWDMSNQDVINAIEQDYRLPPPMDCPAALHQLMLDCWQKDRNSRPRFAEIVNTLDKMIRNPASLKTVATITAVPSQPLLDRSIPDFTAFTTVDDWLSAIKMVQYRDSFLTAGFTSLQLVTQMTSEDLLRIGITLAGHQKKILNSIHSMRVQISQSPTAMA

| SH2 binding enrichment [14] | SH2 binding enrichment [15] | SH2 binding enrichment [16] | Sequence | phosphorylation enrichment [1] | phosphorylation enrichment [2] | phosphorylation enrichment [3] | phosphorylation enrichment [4] | phosphorylation enrichment [5] | phosphorylation enrichment [6] | phosphorylation enrichment [7] | phosphorylation enrichment [8] | phosphorylation enrichment [9] | phosphorylation enrichment [10] | phosphorylation enrichment [11] | phosphorylation enrichment [12] | phosphorylation enrichment [13] |
| --- | --- | --- | --- | --- | --- | --- | --- | --- | --- | --- | --- | --- | --- | --- | --- | --- |
| 0.902 | 0.704 | 1.34 | YCRHNYGAVES [HLA-DRB1_Y112_V114A] | 0.658 | 0.566 | 0.623 | 0.519 | 0.659 | 0.514 | 0.678 | 0.416 | 0.549 | 0.739 | 0.549 | 0.696 | 0.503 |
| 1.21 | 0.936 | 0.806 | YGIAQYCCRMG [LRRK2_Y2023] | 0.983 | 1 | 11.2 | 0.605 | 0.583 | 0.902 | 0.762 | 0.8 | 1.02 | 0.482 | 4.29 | 3.48 | 0.665 |
| 0.734 | 0.793 | 0.438 | YGSSSYGGAGG [RPA2_Y14] | 0.457 | 0.714 | 0.305 | 0.35 | 0.409 | 0.381 | 0.626 | 0.414 | 0.39 | 0.476 | 0.359 | 0.899 | 0.442 |
| 0.877 | 0.507 | 0.49 | YGSSSYRGAGG [RPA2_Y14_G15R] | 0.491 | 0.393 | 0.334 | 0.343 | 0.409 | 0.465 | 0.483 | 0.386 | 0.443 | 0.528 | 0.369 | 0.623 | 0.412 |
| 1 | 0.948 | 0.761 | YIPSNYVAEDR [FRK_Y104] | 0.921 | 0.519 | 0.623 | 0.634 | 0.72 | 0.434 | 0.954 | 0.523 | 0.501 | 0.721 | 0.535 | 0.685 | 0.536 |
| 0.77 | 0.832 | 0.534 | YKIYRYTLNDN [FN1_Y1975_L1974R] | 1.13 | 0.467 | 0.557 | 0.439 | 0.617 | 0.406 | 1.04 | 0.368 | 0.573 | 0.905 | 0.331 | 0.688 | 0.415 |
| 0.795 | 0.788 | 0.509 | YLGEEYVKAVG [TF_Y674] | 0.908 | 0.454 | 0.391 | 0.446 | 0.523 | 0.393 | 0.823 | 0.465 | 0.329 | 0.698 | 0.403 | 0.645 | 0.444 |
| 11.7 | 1.9 | 2.21 | YLTSSYINIST [IL23R_Y178] | 0.978 | 0.735 | 0.588 | 1.27 | 1.29 | 0.567 | 1.18 | 0.488 | 0.637 | 1.81 | 0.648 | 1.11 | 0.466 |
| 2.52 | 0.591 | 1.85 | YNNYGYGNDGF [HNRNPH3_Y161] | 0.789 | 3.61 | 6.45 | 0.766 | 0.766 | 0.566 | 0.924 | 0.577 | 0.455 | 0.673 | 0.759 | 0.547 | 0.505 |
| 0.72 | 0.781 | 0.577 | YSIDHYLGKEM [G6PD_Y202_R198S] | 0.773 | 0.509 | 0.561 | 0.589 | 0.617 | 0.455 | 0.671 | 0.568 | 0.563 | 0.828 | 1.3 | 0.555 | 0.538 |
| 1.03 | 0.697 | 0.592 | YTGDIYSSSNL [LZTR1_Y141_N143S] | 0.917 | 1.27 | 1.53 | 0.613 | 0.626 | 2.91 | 0.74 | 6.08 | 7.13 | 0.504 | 3.2 | 1.97 | 4.97 |
| 0.785 | 0.638 | 0.595 | YTHSDYQYSQR [PKP2_Y166] | 0.892 | 0.479 | 0.482 | 0.467 | 0.507 | 0.42 | 0.594 | 0.403 | 0.391 | 0.757 | 0.474 | 0.444 | 0.434 |

Second part, the sequence before the results:

| Sequence | SH2 binding enrichment [14] | SH2 binding enrichment [15] | SH2 binding enrichment [16] | phosphorylation enrichment [1] | phosphorylation enrichment [2] | phosphorylation enrichment [3] | phosphorylation enrichment [4] | phosphorylation enrichment [5] | phosphorylation enrichment [6] | phosphorylation enrichment [7] | phosphorylation enrichment [8] | phosphorylation enrichment [9] | phosphorylation enrichment [10] | phosphorylation enrichment [11] | phosphorylation enrichment [12] | phosphorylation enrichment [13] |
| --- | --- | --- | --- | --- | --- | --- | --- | --- | --- | --- | --- | --- | --- | --- | --- | --- |
| WHHTFYNELRV [ACTA1_Y93] | 1.2 | 1.52 | 1.9 | 0.875 | 0.558 | 0.483 | 0.552 | 0.645 | 0.54 | 1.01 | 0.502 | 0.997 | 0.783 | 0.587 | 0.657 | 0.546 |
| WKGSWYSMRKM [FGB_Y475] | 1.78 | 1.48 | 1.97 | 1.07 | 0.588 | 0.513 | 0.676 | 0.716 | 0.473 | 1.11 | 0.49 | 0.523 | 0.847 | 0.499 | 0.71 | 0.538 |
| YDRREYSRFEK [ITGB7_Y758] | 1.02 | 0.813 | 0.737 | 0.902 | 0.486 | 0.483 | 0.459 | 0.554 | 0.545 | 0.957 | 0.498 | 0.673 | 0.925 | 0.512 | 0.96 | 0.702 |
| YEEDSYSHIMA [FDPS_Y388] | 0.733 | 0.564 | 2.41 | 1.85 | 0.67 | 0.714 | 1.35 | 1.18 | 1.48 | 1.26 | 0.64 | 0.976 | 1.06 | 0.561 | 0.663 | 0.813 |
| YEEDSYVKRSQ [RET_Y905] | 0.719 | 0.514 | 1.43 | 1.17 | 0.626 | 0.643 | 0.495 | 0.775 | 0.529 | 1.23 | 0.489 | 0.49 | 1.09 | 0.51 | 0.714 | 0.544 |
| YPSLPYSPVSS [CAMKK2_Y128_C123Y] | 0.967 | 1.01 | 0.668 | 0.663 | 0.436 | 0.401 | 0.873 | 0.721 | 3.13 | 0.683 | 0.458 | 0.62 | 0.489 | 0.514 | 0.564 | 0.546 |
| YRAVKYLQMVG [AVPR2_Y117_C112Y] | 0.709 | 2.33 | 0.372 | 0.95 | 0.582 | 0.539 | 0.552 | 0.653 | 0.429 | 0.827 | 0.397 | 0.584 | 0.766 | 0.385 | 0.621 | 0.36 |
| YSGDYYRIQGR [DDR2_Y741] | 1.01 | 0.673 | 0.552 | 1.82 | 5.47 | 2.72 | 12.1 | 8.65 | 0.429 | 0.846 | 1.04 | 1.68 | 8.46 | 5.04 | 1.76 | 2.31 |
| YTNELYMMMRD [FGFR1_Y730_C725Y] | 2.09 | 0.645 | 1.63 | 1.68 | 5.42 | 3.13 | 2.52 | 2.27 | 0.982 | 1.35 | 1.4 | 2.85 | 1.35 | 5.02 | 0.766 | 2.18 |
